# Literature values as cited in publication PMC2948943.
# Target: UmuD (Escherichia coli) (UniProt P0AG11)
# Sequence of UmuD (P0AG11 25-139): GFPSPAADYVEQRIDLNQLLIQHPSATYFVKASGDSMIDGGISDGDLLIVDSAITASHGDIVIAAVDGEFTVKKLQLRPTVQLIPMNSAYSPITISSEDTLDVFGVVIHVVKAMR
substance,measurement,value
UmuD (from UniProt P0AG11),Kd,< 0.01 nM
